According to patent US20190300590A1 (PROTAGONIST THERAPEUTICS, published 2019):
Where two headings read alike, the source gives them in different places. *1 amine or outer side, *2 acyl side, *3 side chain or, on linkers, in order; H or OH if unused. Bridges are numbered along the chain shown (N, C = ends). Primed or numbered codes have the meaning given here. [ ]: non-standard residue; d: D form. Phe(4-OMe)(3) = O-methyl-L-tyrosine (4-methoxy-L-phenylalanine), COc1ccc(C[C@H](N[*:1])C(=O)[*:2])cc1; Phe(4-Oallyl) = 4-allyloxy-phenylalanine (O-allyl-tyrosine), C=CCOc1ccc(C[C@H](N[*:1])C(=O)[*:2])cc1; Phe(4-OMe) = 4-methoxy-L-phenylalanine (O-methyl-L-tyrosine), COc1ccc(C[C@H](N[*:1])C(=O)[*:2])cc1; Phe(Bzl) = read as Phe(4-OBzl), O-benzyl-L-tyrosine, O=C([C@H](Cc1ccc(OCc2ccccc2)cc1)N[*:1])[*:2]; Phe(4-OMe)″ = 4-methoxyphenylalanine, COc1ccc(C[C@H](N[*:1])C(=O)[*:2])cc1; Phe(4-guanidino) = N=C(N)Nc1ccc(C[C@H](N)C(=O)O)cc1; Phe(3,4-Cl2) = N[C@@H](Cc1ccc(Cl)c(Cl)c1)C(=O)O; Phe(4-CONH2) = NC(=O)c1ccc(C[C@H](N)C(=O)O)cc1; Phe(4-COOH) = N[C@@H](Cc1ccc(C(=O)O)cc1)C(=O)O; Tyr(Ph) = N[C@@H](Cc1ccc(Oc2ccccc2)cc1)C(=O)O; Phe(2,4-Me2) = Cc1ccc(C[C@H](N)C(=O)O)c(C)c1; Phe(4-Me) = Cc1ccc(C[C@H](N)C(=O)O)cc1; 1Nal = N[C@@H](Cc1cccc2ccccc12)C(=O)O; 2Nal = N[C@@H](Cc1ccc2ccccc2c1)C(=O)O; AEF = NCCOc1ccc(C[C@H](N)C(=O)O)cc1; αMeF = C[C@](N)(Cc1ccccc1)C(=O)O; 4Pal = N[C@@H](Cc1ccncc1)C(=O)O; αMeOrn = C[C@](N)(CCCN)C(=O)O; hLeu = CC(C)CC[C@H](N)C(=O)O; αMeK = C[C@](N)(CCCCN)C(=O)O; Abu = CC[C@H](N)C(=O)O; Dap = NC[C@H](N)C(=O)O

Columns and labels:
IL23R_huFC [1] = molecular target: T1, IL23R_huFC (human, UniProt Q5VWK5 24-353); experiment: human ELISA vs IL-23
T1 sequence (looked up): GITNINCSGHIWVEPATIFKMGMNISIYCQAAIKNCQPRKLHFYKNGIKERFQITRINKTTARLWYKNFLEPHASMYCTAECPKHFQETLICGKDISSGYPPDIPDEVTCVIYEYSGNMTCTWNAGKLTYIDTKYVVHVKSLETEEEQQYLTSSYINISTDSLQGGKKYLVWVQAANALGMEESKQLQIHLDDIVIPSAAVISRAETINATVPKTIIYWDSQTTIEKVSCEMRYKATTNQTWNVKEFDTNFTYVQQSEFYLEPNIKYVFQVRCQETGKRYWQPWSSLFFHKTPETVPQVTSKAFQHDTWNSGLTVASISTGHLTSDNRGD

Rat IL-23R_huFC = Rat IL-23R_huFC (rat); experiment: rat ELISA vs IL-23
IL23R_huFC [2] = molecular target: T1, IL23R_huFC; experiment: human ELISA vs IL-23; remark: listed apart in the source
[3] = molecular target: T2, IL-23R on human cells (IL-23R-expressing DB cells; human NK cells) (human, UniProt Q5VWK5 24-629); experiment: cell-based or functional assay
T2 sequence (looked up): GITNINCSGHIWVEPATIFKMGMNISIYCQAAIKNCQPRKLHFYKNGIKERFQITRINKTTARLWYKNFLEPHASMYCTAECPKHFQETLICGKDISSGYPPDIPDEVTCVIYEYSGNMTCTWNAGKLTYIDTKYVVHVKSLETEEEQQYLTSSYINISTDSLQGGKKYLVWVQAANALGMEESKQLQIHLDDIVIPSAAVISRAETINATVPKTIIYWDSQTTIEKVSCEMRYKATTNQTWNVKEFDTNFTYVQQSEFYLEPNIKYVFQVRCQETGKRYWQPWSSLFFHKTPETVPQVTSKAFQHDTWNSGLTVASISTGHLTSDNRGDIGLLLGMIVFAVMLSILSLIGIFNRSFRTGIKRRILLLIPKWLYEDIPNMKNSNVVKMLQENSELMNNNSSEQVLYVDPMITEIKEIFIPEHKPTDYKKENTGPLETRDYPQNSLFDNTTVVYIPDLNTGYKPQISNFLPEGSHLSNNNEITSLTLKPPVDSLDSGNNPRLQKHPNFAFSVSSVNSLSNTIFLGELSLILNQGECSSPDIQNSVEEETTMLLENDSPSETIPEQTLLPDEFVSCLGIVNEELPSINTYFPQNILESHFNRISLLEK

IL23R_huFC [4] = molecular target: T1, IL23R_huFC; experiment: human ELISA vs IL-23; remark: listed apart in the source

Binder: Ac-[Abu]QTWQC[Phe(3,4-Cl2)][2Nal][αMeK]K(Ac)NG-NH2 (thioether 1-6) [Ac-Cyclo-[[Abu]-QTWQC]-Phe(3,4-Cl2)[2-Nal][α-MeLys]-Lys(Ac)]NG-NH2]
- IC50 (IL23R_huFC [1]): 100 to 1000 nM

Binder: Ac-[Abu]QT[Phe(2,4-Me2)]QC[AEF][2Nal][αMeK]ENG-NH2 (thioether 1-6) [Ac-Cyclo-[[Abu]-QT-[Phe(2,4-Me2)]-QC]-[Phe[4-(2-aminoethoxy)]]-[2-Nal]-[α-MeLys]-ENG-NH2]
- IC50 (IL23R_huFC [1]): 100 to 1000 nM

Binder: Ac-[Abu]QTWQC[Phe(4-OMe)][1Nal][αMeK]ENG-NH2 (thioether 1-6) [Ac-Cyclo-[[Abu]-QTWQC]-[Phe(4-OMe)]-[1-Nal]-[α-MeLys]-ENG-NH2]
- IC50 (Rat IL-23R_huFC): 25 to 100 nM
- IC50 (IL23R_huFC [2]): 25 to 100 nM

Binder: Ac-[Abu]QTWQC[Phe(4-OMe)][2Nal][αMeK]VNG-NH2 (thioether 1-6) [Ac-Cyclo-[[Abu]-QTWQC]-[Phe(4-OMe)]-[2-Nal]-[α-MeLys]-VNG-NH2]
- pStat3 HTRF IC50 [3]: < 10 nM
- IC50 (Rat IL-23R_huFC): 25 to 100 nM
- IC50 (IL23R_huFC [2]): 25 to 100 nM

Binder: Ac-[Abu]QTWQC[4Pal][2Nal][αMeK]K(Ac)NG-NH2 (thioether 1-6) [Ac-Cyclo-[[Abu]-QTWQC]-[4-Pyridylalanine]-[2-Nal][α-MeLys]-[Lys(Ac)]-NG-NH2]
- IC50 (IL23R_huFC [1]): 100 to 1000 nM

Binder: Ac-[Abu]QT[αMeF]QC[AEF][2Nal][αMeK]ENG-NH2 (thioether 1-6) [Ac-Cyclo-[[Abu]-QT-[α-MePhe]-QC]-[Phe[4-(2-aminoethoxy)]]-[2-Nal]-[α-MeLys]-ENG-NH2]
- IC50 (IL23R_huFC [1]): 100 to 1000 nM

Binder: Ac-[Abu]QTWQC[AEF][2Nal][αMeK]RNG-NH2 (thioether 1-6) [Ac-Cyclo-[[Abu]-QTWQC]-[Phe[4-(2-aminoethoxy)]]-[2-Nal]-[α-MeLys]-RNG-NH2]
- pStat3 HTRF IC50 [3]: < 10 nM
- IC50 (IL23R_huFC [4]): 10 to 25 nM

Binder: Ac-[Abu]QTWQC[Phe(4-OMe)(3)][2Nal][αMeK]K(Ac)QG-NH2 (thioether 1-6) [Ac-Cyclo-[[Abu]-QTWQC]-[Phe(4-OMe)]-[2-Nal][α-MeLys]-[Lys(Ac)]-QG-NH2]
- pStat3 HTRF IC50 [3]: < 10 nM
- IC50 (Rat IL-23R_huFC): 25 to 100 nM
- IC50 (IL23R_huFC [2]): 25 to 100 nM

Binder: XQTWQCFWXENG (as bracketed in name; thioether cyclo) [Ac-Cyclo-[[Abu]-QTWQC]-[Phe(4-OMe)]-W-[α-MeOrn]-ENG-NH2]
- pStat3 HTRF IC50 [3]: < 10 nM
- IC50 (Rat IL-23R_huFC): 25 to 100 nM
- IC50 (IL23R_huFC [2]): 25 to 100 nM

Binder: Ac-[Abu]QTWQC[AEF]W[αMeOrn]K(Ac)NG-NH2 (thioether 1-6) [Ac-Cyclo-[[Abu]-QTWQC]-[Phe[4-(2-aminoethoxy)]]-W-[α-Me-Orn]-[Lys(Ac)]-NG-NH2]
- IC50 (IL23R_huFC [4]): 10 to 25 nM

Binder: Ac-[Abu]QTWQC[Phe(4-OMe)″][Phe(4-Me)][αMeK]ENG-NH2 (thioether 1-6) [Ac-Cyclo-[[Abu]-QTWQC]-[Phe(4-OMe)]-Phe(4-Me)-[α-MeLys]-ENG-NH2]
- IC50 (IL23R_huFC [1]): 100 to 1000 nM

Binder: Ac-[Abu]QTWQC[Phe(4-OMe)(3)][Phe(4-Oallyl)][αMeK]ENG-NH2 (thioether 1-6) [Ac-Cyclo-[[Abu]-QTWQC]-[Phe(4-OMe)]-[Phe(4-Oallyl)]-[α-MeLys]-ENG-NH2]
- IC50 (IL23R_huFC [1]): 100 to 1000 nM

Binder: Ac-[Abu]QTWQC[AEF][Phe(4-CONH2)][αMeK]K(Ac)NG-NH2 (thioether 1-6) [Ac-Cyclo-[[Abu]-QTWQC]-[Phe[4-(2-aminoethoxy)]]-[Phe(4-CONH2)]-[α-MeLys]-[Lys(Ac)]-NG-NH2]
- IC50 (IL23R_huFC [1]): 100 to 1000 nM

Binder: Ac-[Abu]QTWQC[Phe(4-OMe)(3)][Phe(Bzl)][αMeK]ENG-NH2 (thioether 1-6) [Ac-Cyclo-[[Abu]-QTWQC]-[Phe(4-OMe)]-[Phe(Bzl)]-[α-MeLys]-ENG-NH2]
- IC50 (IL23R_huFC [1]): 100 to 1000 nM

Binder: Ac-[Abu]QTWQC[Phe(4-OMe)(3)][Phe(4-guanidino)][αMeK]ENG-NH2 (thioether 1-6) [Ac-Cyclo-[[Abu]-QTWQC]-[Phe(4-OMe)]-[Phe(4-guanidino)]-[α-MeLys]-ENG-NH2]
- IC50 (IL23R_huFC [1]): 100 to 1000 nM

Binder: Ac-[Abu]QTWQC[AEF]W[hLeu]ENG-NH2 (thioether 1-6) [Ac-Cyclo-[[Abu]-QTWQC]-[Phe[4-(2-aminoethoxy)]]-W-[hLeu]-ENG-NH2]
- pStat3 HTRF IC50 [3]: < 10 nM
- IC50 (IL23R_huFC [4]): 10 to 25 nM

Binder: Ac-[Abu]QTWQC[AEF][Phe(4-COOH)][αMeK]K(Ac)NG-NH2 (thioether 1-6) [Ac-Cyclo-[[Abu]-QTWQC]-[Phe[4-(2-aminoethoxy)]]-[Phe(4-CO2H)]-[α-MeLys]-[Lys(Ac)]-NG-NH2]
- IC50 (IL23R_huFC [1]): 100 to 1000 nM

Binder: Ac-[Abu][Dap]TWQC[AEF][Tyr(Ph)][αMeK]K(Ac)NG-NH2 (thioether 1-6) [Ac-Cyclo-[[Abu]-[Dap]-TWQC]-[Phe[4-(2-aminoethoxy)]]-[Phe(4-Phenoxy)]-[α-MeLys]-[Lys(Ac)]-NG-NH2]
- IC50 (IL23R_huFC [1]): 100 to 1000 nM
